Paper PMC12228687, “Harnessing protein language model for structure-based discovery of highly efficient and robust PET hydrolases” (Nature Communications, 2025)

B1: LCC (unidentified prokaryotic organism) (protein)
chain: QSNPYQRGPNPTRSALTADGPFSVATYTVSRLSVSGFGGGVIYYPTGTSLTFGGIAMSPGYTADASSLAWLGRRLASHGFVVLVINTNSRFDYPDSRASQLSAALNYLRTSSPSAVRARLDANRLAVAGHSMGGGGTLRIAEQNPSLKAAVPLTPWHTDKTFNTSVPVLIVGAEADTVAPVSQHAIPFYQNLPSTTPKVYVELDNASHFAPNSNNAAISVYTISWMKLWVDNDTRYRQFLCNVNDPALSDFRTNNRHCQ
notes: wild-type LCC (LCC-ICCG is a separate variant)
B2: KbPETase (APET-14) (Kibdelosporangium banguiense) (protein)
chain: DEIGQAPTAANITGDGSFSTSSSAIFGQSGFGGGTAYYPNTAGKYPVVAFAPGFLSDWNALNWLGPRVASWGFVVVGVNTNTPFDFPDARGDQLLAALNWAVNSAPAAVRDKADGSRRGVSGWSMGGGGTLEALAKDTTGTVKAGVPLAPWHTNKTWSKVTEPVFIIGGQNDSVAAPASHAIPFYNSLGGPKSYLERAGADHFFPTKSNGTVSRAVVSFFKRHVSADTRFTPFLCGFSGLDVSNFRSNSC
notes: predicted signal peptide (SignalP) removed; N-terminal His-tag, pET-28a(+) NdeI/NotI; E. coli BL21(DE3); Ni-NTA purified

Experiments:
purified protein [1] = substrate: CCCC(=O)Oc1ccc([N+](=O)[O-])cc1; assay: purified protein; assay type: biochemical, unidentified prokaryotic organism; details: 10 mM potassium phosphate pH 8.0 (stock buffer), 50 °C, 3 min, 0.5 µg/mL enzyme, 0.2-1.8 mM pNPB
purified protein [2] = substrate: CCCC(=O)Oc1ccc([N+](=O)[O-])cc1; assay: purified protein; assay type: biochemical, Kibdelosporangium banguiense; details: 10 mM potassium phosphate pH 8.0 (stock buffer), 50 °C, 3 min, 0.5 µg/mL enzyme, 0.2-1.8 mM pNPB

Protein | Km (purified protein [1]) | kcat (purified protein [1]) | kcat/Km (purified protein [1]) | Km (purified protein [2]) | kcat (purified protein [2]) | kcat/Km (purified protein [2])
B1 | 1053 ± 289 µM | 0.186 ± 0.021 s⁻¹ | 208 ± 17 M⁻¹ s⁻¹ | – | – | –
B2 | – | – | – | 1040 ± 201 µM | 0.27 ± 0.021 s⁻¹ | 263 ± 31 M⁻¹ s⁻¹
